In patent US20260049138A1 (Chugai, published 2026):

Target: T1, CD3ε homodimer protein (human, UniProt P07766 23-126, limits assumed)
T1 construct: also called CD3 (CD3ε)
Test: SPR Biacore T200, CD3ε homodimer on chip;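 further: Light-chain single-residue variant antibodies injected over amine-coupled CD3ε homodimer on a CM4 chip at 25 °C, bound amount divided by that of the GLS3000-containing antibody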
Description: Each one-amino acid altered form constructed, expressed, and purified in the paragraph (6-2) was evaluated using Biacore T200 (GE Healthcare Japan Corp.). An appropriate amount of CD3ε homodimer protein was immobilized onto Sensor chip CM4 (GE Healthcare Japan Corp.) by the amine coupling method. Then, the antibody having an appropriate concentration was injected thereto as an analyte and allowed to interact with the CD3ε homodimer protein on the sensor chip. Then, the sensor chip was regenerated by the injection of 10 mmol/L glycine-HCl (pH 1.5). The assay was conducted at 25° C., and HBS-EP+ (GE Healthcare Japan Corp.) was used as a running buffer. […] Each parameter was calculated using Biacore T200 Evaluation Software (GE Healthcare Japan Corp.).
Specifically, when the amount of the GLS3000-containing antibody bound was defined as X and the amount of the L chain one-amino acid altered form bound was defined as Y, a value of Z (ratio of amounts bound)=Y/X was used.

T1 sequence (P07766 23-126 limits assumed): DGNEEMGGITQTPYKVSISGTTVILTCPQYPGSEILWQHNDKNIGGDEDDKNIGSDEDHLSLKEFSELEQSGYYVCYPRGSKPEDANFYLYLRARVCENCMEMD

| Binder | ratio of amount bound vs unaltered GLS3000 |
| --- | --- |
| GLS3000 G91S one-arm antibody (antibody, human IgG1, kappa, L234A L235A, N297A, name in Kabat numbering) heavy: QVQLVESGGGVVQPGRSLRLSCAASGFTFSNAWMHWVRQAPGKGLEWVAQIKAKSNNYATYYAESVKGRFTISRDDSKNSLYLQMNSLKTEDTAVYYCRYVHYGAYYGVDAWGQGTTVTVSSASTKGPSVFPLAPSSKSTSGGTAALGCLVKDYFPEPVTVSWNSGALTSGVHTFPAVLQSSGLYSLSSVVTVPSSSLGTQTYICNVNHKPSNTKVDKKVEPKSCDKTHTCPPCPAPEAAGGPSVFLFPPKPKDTLMISRTPEVTCVVVDVSHEDPEVKFNWYVDGVEVHNAKTKPREEQYASTYRVVSVLTVLHQDWLNGKEYKCKVSNKALPAPIEKTISKAKGQPREPQVYTLPPSRCELTKNQVSLSCAVKGFYPSDIAVEWESNGQPENNYKTTPPVLDSDGSFFLVSKLTVDKSRWQQGNVFSCSVMHEALHNHYTQKSLSLSPDYKDDDDK EPKSSDKTHTCPPCPAPELLGGPSVFLFPPKPKDTLMISRTPEVTCVVVDVSHEDPEVKFNWYVDGVEVHNAKTKPREEQYNSTYRVVSVLTVLHQDWLNGKEYKCKVSNKALPAPIEKTISKAKGQPREPQVCTLPPSRDELTKNQVSLWCLVKGFYPSDIAVEWESNGQPENNYKTTPPVLDSDGSFFLYSKLTVDKSRWQQGNVFSCSVMHEALHNRYTQKSLSLSP light: DIVMTQSPLSLPVTPGEPASISCRSSQSLVHSNRNTYLHWYQQKPGQAPRLLIYKVSNRFSGVPDRFSGSGSGTDFTLKISRVEAEDVGVYYCGQSTQVPYTFGQGTKLEIKRTVAAPSVFIFPPSDEQLKSGTASVVCLLNNFYPREAKVQWKVDNALQSGNSQESVTEQDSKDSTYSLSSTLTLSKADYEKHKVYACEVTHQGLSSPVTKSFNRGEC | 0.26 |
| GLS3000 H27dF one-arm antibody (antibody, human IgG1, kappa, L234A L235A, N297A, name in Kabat numbering) heavy: QVQLVESGGGVVQPGRSLRLSCAASGFTFSNAWMHWVRQAPGKGLEWVAQIKAKSNNYATYYAESVKGRFTISRDDSKNSLYLQMNSLKTEDTAVYYCRYVHYGAYYGVDAWGQGTTVTVSSASTKGPSVFPLAPSSKSTSGGTAALGCLVKDYFPEPVTVSWNSGALTSGVHTFPAVLQSSGLYSLSSVVTVPSSSLGTQTYICNVNHKPSNTKVDKKVEPKSCDKTHTCPPCPAPEAAGGPSVFLFPPKPKDTLMISRTPEVTCVVVDVSHEDPEVKFNWYVDGVEVHNAKTKPREEQYASTYRVVSVLTVLHQDWLNGKEYKCKVSNKALPAPIEKTISKAKGQPREPQVYTLPPSRCELTKNQVSLSCAVKGFYPSDIAVEWESNGQPENNYKTTPPVLDSDGSFFLVSKLTVDKSRWQQGNVFSCSVMHEALHNHYTQKSLSLSPDYKDDDDK EPKSSDKTHTCPPCPAPELLGGPSVFLFPPKPKDTLMISRTPEVTCVVVDVSHEDPEVKFNWYVDGVEVHNAKTKPREEQYNSTYRVVSVLTVLHQDWLNGKEYKCKVSNKALPAPIEKTISKAKGQPREPQVCTLPPSRDELTKNQVSLWCLVKGFYPSDIAVEWESNGQPENNYKTTPPVLDSDGSFFLYSKLTVDKSRWQQGNVFSCSVMHEALHNRYTQKSLSLSP light: DIVMTQSPLSLPVTPGEPASISCRSSQSLVFSNRNTYLHWYQQKPGQAPRLLIYKVSNRFSGVPDRFSGSGSGTDFTLKISRVEAEDVGVYYCGQGTQVPYTFGQGTKLEIKRTVAAPSVFIFPPSDEQLKSGTASVVCLLNNFYPREAKVQWKVDNALQSGNSQESVTEQDSKDSTYSLSSTLTLSKADYEKHKVYACEVTHQGLSSPVTKSFNRGEC | 0.63 |
| GLS3000 H27dE one-arm antibody (antibody, human IgG1, kappa, L234A L235A, N297A, name in Kabat numbering) heavy: QVQLVESGGGVVQPGRSLRLSCAASGFTFSNAWMHWVRQAPGKGLEWVAQIKAKSNNYATYYAESVKGRFTISRDDSKNSLYLQMNSLKTEDTAVYYCRYVHYGAYYGVDAWGQGTTVTVSSASTKGPSVFPLAPSSKSTSGGTAALGCLVKDYFPEPVTVSWNSGALTSGVHTFPAVLQSSGLYSLSSVVTVPSSSLGTQTYICNVNHKPSNTKVDKKVEPKSCDKTHTCPPCPAPEAAGGPSVFLFPPKPKDTLMISRTPEVTCVVVDVSHEDPEVKFNWYVDGVEVHNAKTKPREEQYASTYRVVSVLTVLHQDWLNGKEYKCKVSNKALPAPIEKTISKAKGQPREPQVYTLPPSRCELTKNQVSLSCAVKGFYPSDIAVEWESNGQPENNYKTTPPVLDSDGSFFLVSKLTVDKSRWQQGNVFSCSVMHEALHNHYTQKSLSLSPDYKDDDDK EPKSSDKTHTCPPCPAPELLGGPSVFLFPPKPKDTLMISRTPEVTCVVVDVSHEDPEVKFNWYVDGVEVHNAKTKPREEQYNSTYRVVSVLTVLHQDWLNGKEYKCKVSNKALPAPIEKTISKAKGQPREPQVCTLPPSRDELTKNQVSLWCLVKGFYPSDIAVEWESNGQPENNYKTTPPVLDSDGSFFLYSKLTVDKSRWQQGNVFSCSVMHEALHNRYTQKSLSLSP light: DIVMTQSPLSLPVTPGEPASISCRSSQSLVESNRNTYLHWYQQKPGQAPRLLIYKVSNRFSGVPDRFSGSGSGTDFTLKISRVEAEDVGVYYCGQGTQVPYTFGQGTKLEIKRTVAAPSVFIFPPSDEQLKSGTASVVCLLNNFYPREAKVQWKVDNALQSGNSQESVTEQDSKDSTYSLSSTLTLSKADYEKHKVYACEVTHQGLSSPVTKSFNRGEC | 0.23 |
| GLS3000 G91T one-arm antibody (antibody, human IgG1, kappa, L234A L235A, N297A, name in Kabat numbering) heavy: QVQLVESGGGVVQPGRSLRLSCAASGFTFSNAWMHWVRQAPGKGLEWVAQIKAKSNNYATYYAESVKGRFTISRDDSKNSLYLQMNSLKTEDTAVYYCRYVHYGAYYGVDAWGQGTTVTVSSASTKGPSVFPLAPSSKSTSGGTAALGCLVKDYFPEPVTVSWNSGALTSGVHTFPAVLQSSGLYSLSSVVTVPSSSLGTQTYICNVNHKPSNTKVDKKVEPKSCDKTHTCPPCPAPEAAGGPSVFLFPPKPKDTLMISRTPEVTCVVVDVSHEDPEVKFNWYVDGVEVHNAKTKPREEQYASTYRVVSVLTVLHQDWLNGKEYKCKVSNKALPAPIEKTISKAKGQPREPQVYTLPPSRCELTKNQVSLSCAVKGFYPSDIAVEWESNGQPENNYKTTPPVLDSDGSFFLVSKLTVDKSRWQQGNVFSCSVMHEALHNHYTQKSLSLSPDYKDDDDK EPKSSDKTHTCPPCPAPELLGGPSVFLFPPKPKDTLMISRTPEVTCVVVDVSHEDPEVKFNWYVDGVEVHNAKTKPREEQYNSTYRVVSVLTVLHQDWLNGKEYKCKVSNKALPAPIEKTISKAKGQPREPQVCTLPPSRDELTKNQVSLWCLVKGFYPSDIAVEWESNGQPENNYKTTPPVLDSDGSFFLYSKLTVDKSRWQQGNVFSCSVMHEALHNRYTQKSLSLSP light: DIVMTQSPLSLPVTPGEPASISCRSSQSLVHSNRNTYLHWYQQKPGQAPRLLIYKVSNRFSGVPDRFSGSGSGTDFTLKISRVEAEDVGVYYCGQTTQVPYTFGQGTKLEIKRTVAAPSVFIFPPSDEQLKSGTASVVCLLNNFYPREAKVQWKVDNALQSGNSQESVTEQDSKDSTYSLSSTLTLSKADYEKHKVYACEVTHQGLSSPVTKSFNRGEC | 0.26 |
| GLS3000 G91Y one-arm antibody (antibody, human IgG1, kappa, L234A L235A, N297A, name in Kabat numbering) heavy: QVQLVESGGGVVQPGRSLRLSCAASGFTFSNAWMHWVRQAPGKGLEWVAQIKAKSNNYATYYAESVKGRFTISRDDSKNSLYLQMNSLKTEDTAVYYCRYVHYGAYYGVDAWGQGTTVTVSSASTKGPSVFPLAPSSKSTSGGTAALGCLVKDYFPEPVTVSWNSGALTSGVHTFPAVLQSSGLYSLSSVVTVPSSSLGTQTYICNVNHKPSNTKVDKKVEPKSCDKTHTCPPCPAPEAAGGPSVFLFPPKPKDTLMISRTPEVTCVVVDVSHEDPEVKFNWYVDGVEVHNAKTKPREEQYASTYRVVSVLTVLHQDWLNGKEYKCKVSNKALPAPIEKTISKAKGQPREPQVYTLPPSRCELTKNQVSLSCAVKGFYPSDIAVEWESNGQPENNYKTTPPVLDSDGSFFLVSKLTVDKSRWQQGNVFSCSVMHEALHNHYTQKSLSLSPDYKDDDDK EPKSSDKTHTCPPCPAPELLGGPSVFLFPPKPKDTLMISRTPEVTCVVVDVSHEDPEVKFNWYVDGVEVHNAKTKPREEQYNSTYRVVSVLTVLHQDWLNGKEYKCKVSNKALPAPIEKTISKAKGQPREPQVCTLPPSRDELTKNQVSLWCLVKGFYPSDIAVEWESNGQPENNYKTTPPVLDSDGSFFLYSKLTVDKSRWQQGNVFSCSVMHEALHNRYTQKSLSLSP light: DIVMTQSPLSLPVTPGEPASISCRSSQSLVHSNRNTYLHWYQQKPGQAPRLLIYKVSNRFSGVPDRFSGSGSGTDFTLKISRVEAEDVGVYYCGQYTQVPYTFGQGTKLEIKRTVAAPSVFIFPPSDEQLKSGTASVVCLLNNFYPREAKVQWKVDNALQSGNSQESVTEQDSKDSTYSLSSTLTLSKADYEKHKVYACEVTHQGLSSPVTKSFNRGEC | 0.17 |
| GLS3000 H27dD one-arm antibody (antibody, human IgG1, kappa, L234A L235A, N297A, name in Kabat numbering) heavy: QVQLVESGGGVVQPGRSLRLSCAASGFTFSNAWMHWVRQAPGKGLEWVAQIKAKSNNYATYYAESVKGRFTISRDDSKNSLYLQMNSLKTEDTAVYYCRYVHYGAYYGVDAWGQGTTVTVSSASTKGPSVFPLAPSSKSTSGGTAALGCLVKDYFPEPVTVSWNSGALTSGVHTFPAVLQSSGLYSLSSVVTVPSSSLGTQTYICNVNHKPSNTKVDKKVEPKSCDKTHTCPPCPAPEAAGGPSVFLFPPKPKDTLMISRTPEVTCVVVDVSHEDPEVKFNWYVDGVEVHNAKTKPREEQYASTYRVVSVLTVLHQDWLNGKEYKCKVSNKALPAPIEKTISKAKGQPREPQVYTLPPSRCELTKNQVSLSCAVKGFYPSDIAVEWESNGQPENNYKTTPPVLDSDGSFFLVSKLTVDKSRWQQGNVFSCSVMHEALHNHYTQKSLSLSPDYKDDDDK EPKSSDKTHTCPPCPAPELLGGPSVFLFPPKPKDTLMISRTPEVTCVVVDVSHEDPEVKFNWYVDGVEVHNAKTKPREEQYNSTYRVVSVLTVLHQDWLNGKEYKCKVSNKALPAPIEKTISKAKGQPREPQVCTLPPSRDELTKNQVSLWCLVKGFYPSDIAVEWESNGQPENNYKTTPPVLDSDGSFFLYSKLTVDKSRWQQGNVFSCSVMHEALHNRYTQKSLSLSP light: DIVMTQSPLSLPVTPGEPASISCRSSQSLVDSNRNTYLHWYQQKPGQAPRLLIYKVSNRFSGVPDRFSGSGSGTDFTLKISRVEAEDVGVYYCGQGTQVPYTFGQGTKLEIKRTVAAPSVFIFPPSDEQLKSGTASVVCLLNNFYPREAKVQWKVDNALQSGNSQESVTEQDSKDSTYSLSSTLTLSKADYEKHKVYACEVTHQGLSSPVTKSFNRGEC | 0.22 |
